# PMC6275495
# Molecular target: PDGFRs (PDGFRα and PDGFRβ subunit dimers) (mouse (endogenous in MEFs)) (UniProt P26618)
# Assay: affinity purification with mass spectrometry
# UniProt P26618, sequence (P26618 25-1089, chain 1 of 2): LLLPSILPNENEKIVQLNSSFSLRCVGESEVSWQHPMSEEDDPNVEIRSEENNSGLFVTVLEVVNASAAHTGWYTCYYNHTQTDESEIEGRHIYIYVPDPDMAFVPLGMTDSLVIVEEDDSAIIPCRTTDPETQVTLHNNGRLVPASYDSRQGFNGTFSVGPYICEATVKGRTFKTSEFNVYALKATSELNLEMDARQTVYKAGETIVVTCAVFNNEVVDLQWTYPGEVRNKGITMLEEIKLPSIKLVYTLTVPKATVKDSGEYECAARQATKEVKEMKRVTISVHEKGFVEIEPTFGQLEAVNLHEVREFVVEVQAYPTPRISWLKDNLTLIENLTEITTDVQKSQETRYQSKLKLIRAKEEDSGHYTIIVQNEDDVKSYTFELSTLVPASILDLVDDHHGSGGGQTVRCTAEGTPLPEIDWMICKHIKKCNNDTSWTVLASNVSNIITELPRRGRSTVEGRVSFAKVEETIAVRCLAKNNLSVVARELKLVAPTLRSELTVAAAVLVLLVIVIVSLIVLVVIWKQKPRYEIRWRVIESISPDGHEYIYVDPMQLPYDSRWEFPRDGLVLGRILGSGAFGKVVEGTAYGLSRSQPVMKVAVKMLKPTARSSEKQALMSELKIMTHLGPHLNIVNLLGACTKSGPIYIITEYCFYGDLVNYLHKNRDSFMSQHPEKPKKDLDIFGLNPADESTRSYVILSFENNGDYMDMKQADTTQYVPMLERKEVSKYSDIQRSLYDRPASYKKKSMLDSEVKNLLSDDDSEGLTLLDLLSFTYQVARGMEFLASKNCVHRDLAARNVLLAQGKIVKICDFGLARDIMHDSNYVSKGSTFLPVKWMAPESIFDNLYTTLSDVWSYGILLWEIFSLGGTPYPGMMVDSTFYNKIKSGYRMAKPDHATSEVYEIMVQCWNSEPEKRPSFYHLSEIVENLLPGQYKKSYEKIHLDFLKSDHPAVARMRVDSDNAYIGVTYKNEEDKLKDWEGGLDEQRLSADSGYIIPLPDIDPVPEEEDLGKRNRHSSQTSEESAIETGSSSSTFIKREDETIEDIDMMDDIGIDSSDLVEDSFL
# UniProt P26618, sequence (P05622 32-1098, chain 2 of 2, further chain): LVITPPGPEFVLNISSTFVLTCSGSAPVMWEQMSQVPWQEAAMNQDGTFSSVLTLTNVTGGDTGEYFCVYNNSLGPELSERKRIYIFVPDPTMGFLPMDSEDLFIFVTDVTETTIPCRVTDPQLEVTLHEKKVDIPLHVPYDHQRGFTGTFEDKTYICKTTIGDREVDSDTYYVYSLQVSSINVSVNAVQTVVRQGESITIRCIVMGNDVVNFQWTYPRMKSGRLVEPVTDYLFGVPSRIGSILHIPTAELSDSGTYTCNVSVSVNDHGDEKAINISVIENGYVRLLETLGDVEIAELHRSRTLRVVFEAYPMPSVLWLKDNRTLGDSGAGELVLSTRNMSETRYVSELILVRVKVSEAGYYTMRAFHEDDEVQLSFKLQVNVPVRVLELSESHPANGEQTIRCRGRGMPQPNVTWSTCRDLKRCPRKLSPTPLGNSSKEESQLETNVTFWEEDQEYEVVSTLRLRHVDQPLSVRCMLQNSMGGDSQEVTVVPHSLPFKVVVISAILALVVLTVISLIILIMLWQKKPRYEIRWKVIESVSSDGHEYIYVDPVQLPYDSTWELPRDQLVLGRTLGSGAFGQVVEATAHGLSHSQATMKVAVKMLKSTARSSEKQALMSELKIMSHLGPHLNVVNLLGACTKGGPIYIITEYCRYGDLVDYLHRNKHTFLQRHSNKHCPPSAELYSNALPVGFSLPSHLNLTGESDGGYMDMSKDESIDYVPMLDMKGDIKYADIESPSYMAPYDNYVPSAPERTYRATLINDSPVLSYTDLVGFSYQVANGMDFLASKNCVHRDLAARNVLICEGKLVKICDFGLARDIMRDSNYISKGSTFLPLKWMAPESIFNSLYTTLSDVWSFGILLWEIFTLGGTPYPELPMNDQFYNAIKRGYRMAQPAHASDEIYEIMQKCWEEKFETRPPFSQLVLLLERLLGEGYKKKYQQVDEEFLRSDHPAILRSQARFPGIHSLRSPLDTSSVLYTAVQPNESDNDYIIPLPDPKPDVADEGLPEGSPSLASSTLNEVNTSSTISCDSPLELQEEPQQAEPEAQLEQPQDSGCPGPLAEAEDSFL
substance,measurement,value
total p85,percent of total associated with anti-PDGFR-IPs,> 80%
